Measurements as given in patent US20220257784A1 (Bicycle, published 2022).
One block for each binder: values may come before it. Starred links: 1 amine or outer side, 2 acyl side, 3 side chain; linkers in the order of their positions; H or OH if unused. Positions of bridges follow the written chain, without caps; N, C: chain ends. Non-standard residues stand in square brackets, D forms with d. No end group written: not given here. TATA = O=C(CC[*:1])N1CN(C(=O)CC[*:2])CN(C(=O)CC[*:3])C1; Ala(4-thiazolyl) = N[C@@H](Cc1cscn1)C(=O)O; Dip = N[C@H](C(=O)O)C(c1ccccc1)c1ccccc1; 1Nal = N[C@@H](Cc1cccc2ccccc12)C(=O)O; His(τ-Me) = Cn1cnc(C[C@H](N)C(=O)O)c1; d1Nal = N[C@H](Cc1cccc2ccccc12)C(=O)O; Hyp = O=C(O)[C@@H]1C[C@@H](O)CN1; hArg = N=C(N)NCCCC[C@H](N)C(=O)O; 2Thi = N[C@@H](Cc1cccs1)C(=O)O; 3Thi = N[C@@H](Cc1ccsc1)C(=O)O; Aad = N[C@@H](CCCC(=O)O)C(=O)O; His3Me = N3-methyl-L-histidine; Cysteamide = C(CS[*:3])N[*:1]; Cba = N[C@@H](CC1CCC1)C(=O)O; dNle = CCCC[C@@H](N)C(=O)O; NMeA = CN[C@@H](C)C(=O)O; Nle = CCCC[C@H](N)C(=O)O; Mpa = O=C(O)CCS

Key:
human EphA2 [1] = target: T1, human EphA2 (human, UniProt P29317 25-534, limits assumed); experiment: fluorescence polarisation competition with tracer BCY90, human EphA2, mean of 6
T1 construct: also called Eph receptor tyrosine kinase A2
T1 sequence (P29317 25-534 limits assumed): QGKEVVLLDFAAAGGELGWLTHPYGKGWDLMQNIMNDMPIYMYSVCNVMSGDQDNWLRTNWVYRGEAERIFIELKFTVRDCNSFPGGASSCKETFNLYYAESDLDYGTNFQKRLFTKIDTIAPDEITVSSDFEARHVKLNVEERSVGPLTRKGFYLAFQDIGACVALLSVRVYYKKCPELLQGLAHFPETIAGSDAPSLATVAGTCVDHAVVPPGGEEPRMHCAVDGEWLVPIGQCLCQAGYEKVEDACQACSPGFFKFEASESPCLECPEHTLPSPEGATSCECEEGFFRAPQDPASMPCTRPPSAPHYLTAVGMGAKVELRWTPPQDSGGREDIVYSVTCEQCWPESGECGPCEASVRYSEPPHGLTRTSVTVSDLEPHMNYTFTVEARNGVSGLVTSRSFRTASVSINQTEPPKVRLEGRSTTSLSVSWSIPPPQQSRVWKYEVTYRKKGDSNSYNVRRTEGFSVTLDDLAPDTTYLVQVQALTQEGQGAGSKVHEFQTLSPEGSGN
Procedure: (§1) Peptides without a fluorescent tag were tested in competition with a peptide with a fluorescent tag and a known Kd.
(§2) Peptides were diluted to an appropriate concentration in assay buffer as described in the direct binding assay with a maximum of 5% DMSO, then serially diluted 1 in 2. […] Measurements were conducted, however the gain was determined prior to the first measurement. Data analysis was in Systat Sigmaplot version 12.0 where the mP values were fit to a user defined cubic equation to generate a Ki value: […]

human EphA2 [2] = target: T1, human EphA2; experiment: fluorescence polarisation competition with tracer BCY90, human EphA2, mean of 8
Procedure: as §1, §2

human EphA2 [3] = target: T1, human EphA2; experiment: fluorescence polarisation competition with tracer BCY90, human EphA2, mean of 38
Procedure: as §1, §2

human EphA2 [4] = target: T1, human EphA2; experiment: fluorescence polarisation competition with tracer BCY90, human EphA2, mean of 10
Procedure: as §1, §2

B3: BCY13116 (peptide)
peptide: A[hArg]DC[Hyp]LVNPLCLHP[d1Nal]W[hArg]C-NH2
modifications: linker 4-11-18 via TATA
notes: Bicyclic peptide cyclised with TATA
Ki (human EphA2 [2]): 1.13 nM

B5: BCY12856 (peptide)
peptide: A[hArg]DC[Hyp]LVNPLCLEP[dD]WTC-NH2
modifications: linker 4-11-18 via TATA
notes: as for B3
Ki (human EphA2 [2]): 4.63 nM

B6: BCY12858 (peptide)
peptide: A[hArg]DC[Hyp]LVNPLCLEP[dA]WTC-NH2
modifications: linker 4-11-18 via TATA
notes: as for B3
Ki (human EphA2 [1]): 8.19 nM

B8: BCY13130 (peptide)
peptide: A[hArg]DC[Hyp][Aad]VNPLCLHP[dD]W[hArg]C-NH2
modifications: linker 4-11-18 via TATA
notes: as for B3
Ki (human EphA2 [1]): 7.8 nM

B11: BCY13119 (peptide)
peptide: C[Hyp]LVNPLCL[1Nal]P[dD]WTC-NH2
modifications: linker 1-8-15 via TATA
notes: as for B3
Ki (human EphA2 [2]): 2.64 nM

B13: BCY12861 (peptide)
peptide: C[Hyp]LVNPLCLEP[dD]WTC[dA]-NH2
modifications: linker 1-8-15 via TATA
notes: as for B3
Ki (human EphA2 [1]): 21.7 nM

B19: BCY12864 (peptide)
peptide: [dA][hArg]DC[Hyp][Cba]VNPLCLEP[dD]WTC[dA]-NH2
modifications: linker 4-11-18 via TATA
notes: as for B3
Ki (human EphA2 [1]): 9.29 nM

B21: BCY12857 (peptide)
peptide: A[hArg]DC[Hyp]LVNPLCLEP[dD]WTC[dA]-NH2
modifications: linker 4-11-18 via TATA
notes: as for B3
Ki (human EphA2 [1]): 16 nM

B22: BCY13122 (peptide)
peptide: [NMeA][hArg]DC[Hyp]LVNPLCLEP[dD]WTC-NH2
modifications: linker 4-11-18 via TATA
notes: as for B3
Ki (human EphA2 [2]): 7.8 nM

B24: BCY13131 (peptide)
peptide: A[hArg]DC[Hyp]LVNPLC[Aad]HP[dD]W[hArg]C-NH2
modifications: linker 4-11-18 via TATA
notes: as for B3
Ki (human EphA2 [1]): 27.1 nM

B25: BCY12854 (peptide)
peptide: A[hArg]DC[Hyp]LVNPLCLEP[dD]W[hArg]C-NH2
modifications: linker 4-11-18 via TATA
notes: as for B3
Ki (human EphA2 [1]): 9.34 nM

B28: BCY9594 (peptide)
peptide: A[hArg]DC[Hyp]LVNPLCLHP[dD]W[hArg]C-NH2
modifications: linker 4-11-18 via TATA
notes: as for B3
Ki (human EphA2 [3]): 1.44 nM

B31: BCY13117 (peptide)
peptide: A[hArg]DC[Hyp]LVNPLCL[1Nal]P[dD]W[hArg]C-NH2
modifications: linker 4-11-18 via TATA
notes: as for B3
Ki (human EphA2 [2]): 1.12 nM

B32: BCY13128 (peptide)
peptide: ADC[Hyp]LVNPLCLEP[dD]WTC-NH2
modifications: linker 3-10-17 via TATA
notes: as for B3
Ki (human EphA2 [1]): 16.1 nM

B33: BCY13126 (peptide)
peptide: [dA]EDC[Hyp]LVNPLCLEP[dD]WTC-NH2
modifications: linker 4-11-18 via TATA
notes: as for B3
Ki (human EphA2 [1]): 25.3 nM

B34: BCY13127 (peptide)
peptide: [dA][dA]DC[Hyp]LVNPLCLEP[dD]WTC-NH2
modifications: linker 4-11-18 via TATA
notes: as for B3
Ki (human EphA2 [1]): 14.9 nM

B36: BCY12866 (peptide)
peptide: A[hArg]DC[Hyp]LVNPLCL[Dip]P[dD]W[hArg]C-NH2
modifications: linker 4-11-18 via TATA
notes: as for B3
Ki (human EphA2 [4]): 0.244 nM

B39: BCY12859 (peptide)
peptide: A[hArg]DC[Hyp]LVNPLCL[Dip]P[dD]WTC-NH2
modifications: linker 4-11-18 via TATA
notes: as for B3
Ki (human EphA2 [2]): 0.723 nM

The remaining lines, values ahead:

Ki (human EphA2 [1]): 1.14 nM
B1: BCY13922 (peptide)
peptide: A[hArg]DC[Hyp]LVNPLCL[2Thi]P[dD]W[hArg]C-NH2
modifications: linker 4-11-18 via TATA
notes: as for B3

Ki (human EphA2 [1]): 0.857 nM
B2: BCY12865 (peptide)
peptide: C[Hyp][Cba]VNPLCL[Dip]P[dD]WTC[dA]-NH2
modifications: linker 1-8-15 via TATA
notes: as for B3

Ki (human EphA2 [1]): 0.916 nM
B4: BCY13120 (peptide)
peptide: Ac-C[Hyp]LVNPLCL[Dip]P[dD]WTC[dK]-NH2
modifications: linker 1-8-15 via TATA
notes: as for B3

Ki (human EphA2 [1]): 5.55 nM
B7: BCY12855 (peptide)
peptide: A[hArg]DC[Hyp]LVNPLCLHP[dD]WTC-NH2
modifications: linker 4-11-18 via TATA
notes: as for B3

Ki (human EphA2 [1]): 5.84 nM
B9: BCY12863 (peptide)
peptide: A[hArg]DC[Hyp][Cba]VNPLCLEP[dD]WTC-NH2
modifications: linker 4-11-18 via TATA
notes: as for B3

Ki (human EphA2 [1]): 0.66 nM
B10: BCY12860 (peptide)
peptide: C[Hyp]LVNPLCL[Dip]P[dD]WTC-NH2
modifications: linker 1-8-15 via TATA
notes: as for B3

Ki (human EphA2 [1]): 1.49 nM
B12: BCY13121 (peptide)
peptide: [NMeA][hArg]DC[Hyp]LVNPLCLHP[dD]W[hArg]C-NH2
modifications: linker 4-11-18 via TATA
notes: as for B3

Ki (human EphA2 [1]): 2.62 nM
B14: BCY13918 (peptide)
peptide: A[hArg]DC[Hyp]LVNPLCL[His(τ-Me)]P[dD]W[hArg]C-NH2
modifications: linker 4-11-18 via TATA
notes: as for B3

Ki (human EphA2 [1]): 1.32 nM
B15: BCY13923 (peptide)
peptide: A[hArg]DC[Hyp]LVNPLCL[3Thi]P[dD]W[hArg]C-NH2
modifications: linker 4-11-18 via TATA
notes: as for B3

Ki (human EphA2 [1]): 7.08 nM
B16: BCY13132 (peptide)
peptide: A[hArg]DC[Hyp]LVNPLCL[Aad]P[dD]W[hArg]C-NH2
modifications: linker 4-11-18 via TATA
notes: as for B3

Ki (human EphA2 [1]): 5.42 nM
B17: BCY13118 (peptide)
peptide: A[hArg]DC[Hyp]LVNPLCLEP[d1Nal]WTC-NH2
modifications: linker 4-11-18 via TATA
notes: as for B3

Ki (human EphA2 [1]): 1.72 nM
B18: BCY13917 (peptide)
peptide: A[hArg]DC[Hyp]LVNPLCL[His3Me]P[dD]W[hArg]C-NH2
modifications: linker 4-11-18 via TATA
notes: as for B3

Ki (human EphA2 [1]): 6.44 nM
B20: BCY13123 (peptide)
peptide: [dA][hArg]DC[Hyp][Cba]VNPLCLEP[dA]WTC[dA]-NH2
modifications: linker 4-11-18 via TATA
notes: as for B3

Ki (human EphA2 [1]): 1.22 nM
B23: BCY12862 (peptide)
peptide: A[hArg]DC[Hyp][Cba]VNPLCLHP[dD]W[hArg]C-NH2
modifications: linker 4-11-18 via TATA
notes: as for B3

Ki (human EphA2 [1]): 0.641 nM
B26: BCY13920 (peptide)
peptide: A[hArg]DC[Hyp]LVNPLCLFP[dD]W[hArg]C-NH2
modifications: linker 4-11-18 via TATA
notes: as for B3

Ki (human EphA2 [1]): 4.1 nM
B27: BCY14048 (peptide)
peptide: A[hArg]DC[Hyp]LVNPLCLQP[dD]W[hArg]C-NH2
modifications: linker 4-11-18 via TATA
notes: as for B3

Ki (human EphA2 [1]): 3.88 nM
B29: BCY14047 (peptide)
peptide: A[hArg]DC[Hyp]LVNPLCLNP[dD]W[hArg]C-NH2
modifications: linker 4-11-18 via TATA
notes: as for B3

Ki (human EphA2 [1]): 0.894 nM
B30: BCY13135 (peptide)
peptide: A[hArg]DC[Hyp]LVNPLCL[Nle]P[dD]W[hArg]C-NH2
modifications: linker 4-11-18 via TATA
notes: as for B3

Ki (human EphA2 [1]): 7.62 nM
B35: BCY13124 (peptide)
peptide: [d1Nal][hArg]DC[Hyp][Cba]VNPLCLEP[dA]WTC[dA]-NH2
modifications: linker 4-11-18 via TATA
notes: as for B3

Ki (human EphA2 [1]): 1.83 nM
B37: BCY13125 (peptide)
peptide: Ac-C[Hyp]LVNPLCLHP[dD]W[hArg]CL[dH]G[dK]-NH2
modifications: linker 1-8-15 via TATA
notes: as for B3

Ki (human EphA2 [1]): 3.24 nM
B38: BCY13133 (peptide)
peptide: A[hArg]DC[Hyp]LVNPLCLHP[dD]W[hArg][Cysteamide]
modifications: linker (positions not given here) via TATA; not fully specified (bridges)
notes: Bicyclic peptide cyclised with TATA; the third reactive group is cysteamine in place of cysteine

Ki (human EphA2 [1]): 1.16 nM
B40: BCY13134 (peptide)
peptide: A[hArg]DC[Hyp]LVNPLCLHP[dNle]W[hArg]C-NH2
modifications: linker 4-11-18 via TATA
notes: as for B3

Ki (human EphA2 [1]): 1.88 nM
B41: BCY13129 (peptide)
peptide: [Mpa][Hyp]LVNPLCL[Dip]P[dD]WTC[dK]-NH2
modifications: linker (positions not given here) via TATA; not fully specified (bridges)
notes: Bicyclic peptide cyclised with TATA; the first reactive group is 3-mercaptopropionic acid in place of cysteine

Ki (human EphA2 [1]): 2.1 nM
B42: BCY13919 (peptide)
peptide: A[hArg]DC[Hyp]LVNPLCL[Ala(4-thiazolyl)]P[dD]W[hArg]C-NH2
modifications: linker 4-11-18 via TATA
notes: as for B3
